Reference: patent publication US5985836A, “Alpha-1 proteinase inhibitor binding peptides” (Bayer Corporation, priority 1998, dated 1999)
Ends that are not written are not given here.

How the values were obtained:
A1PI [1] = molecular target: T1, A1PI (Homo sapiens, UniProt P01009); experiment: A1PI yield from dialyzed (aqueous) Effluent II+III; assay type: binding; conditions: 4° C.
T1 construct: Human plasma is currently the only approved source of therapeutic AlPI
How it was run: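 Effluent II+III was dialyzed at 4° C against equilibration buffer (15,000 MWCO) to remove ethanol. It was then applied under the same binding conditions as neat feed, and A1PI was tracked by nephelometry in the 1M NaCl and acid eluates.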

A1PI [2] = molecular target: T1, A1PI; experiment: A1PI purification from 5 mg hSA + 1 mg A1PI on peptide column, A1PI mass balance; assay type: binding; conditions: for Mass AlPI Eluted in Acid Eluate: nephelometry; for Mass Protein per Eluate Fraction, 1M NaCl / Mass Protein per Eluate Fraction, 2% Ac. Acid / Mass Protein per Eluate Fraction, 3M NaCl / Mass Protein per Eluate Fraction, Flow / Percent Eluted by Fraction, 1M NaCl / Percent Eluted by Fraction, 2% Ac. Acid / Percent Eluted by Fraction, 3M NaCl / Percent Eluted by Fraction, Flow / Mass Protein per Eluate Fraction, 2% Acetic Acid / Percent Eluted by Fraction, 2% Acetic Acid: A1PI, 5 mg hSA + 1 mg A1PI; for Mass Protein per Eluate Fraction, 1M NaCl / Mass Protein per Eluate Fraction, 2% Ac. Acid / Mass Protein per Eluate Fraction, 3M NaCl / Mass Protein per Eluate Fraction, Flow / Mass Protein per Eluate Fraction, 2% Acetic Acid: * Below detection limit
How it was run: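 Mass balance by immunonephelometry of fractions from step elutions (1M NaCl, 3M NaCl, 2% acetic acid, neutralised with Tris) at 865 μl/min. Sample was a mixture of 1 mg A1PI and 5 mg hSA held 10 min on peptide-derivatised Toyopearl columns (0.1 mmole/g) at 4 °C or 20 °C.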

A1PI [3] = molecular target: T1, A1PI; experiment: A1PI binding on peptide-resin column, injection of 1 mg A1PI in equilibration buffer; conditions: for % of Total A1PI Eluted by Fraction (Based on Absorbance at 280 nm), 1M NaCl / % of Total A1PI Eluted by Fraction (Based on Absorbance at 280 nm), 2% Acetic Acid / % of Total A1PI Eluted by Fraction (Based on Absorbance at 280 nm), Flowthrough: 1 mg A1PI
How it was run: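 Percent of total eluted A1PI per fraction (flowthrough, NaCl steps, 2% acetic acid) determined by A280 integration or immunonephelometry. Columns of peptide-derivatized A-Totda-Toyopearl resin (0.1 mmole/g) received 1 mg A1PI at 4 °C or 20 °C, flow 865 or 523 μl/min.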

[4] = 1 ml dialyzed Eff. II+III (ethanol removed)
[5] = A1PI, 1 ml dialyzed Eff. II+III
[6] = 4° C., relative to total eluted
[7] = 20° C., relative to total eluted
[8] = Table 10, 4° C., relative to total loaded
[9] = Table 10, 20° C., relative to total loaded
[10] = 1 mg A1PI in equilibration buffer, 4° C.
[11] = 1 mg A1PI in equilibration buffer, 20° C.
[12] = VIWLVR N-terminal point mutations, 4° C.

T1 sequence (P01009 25-418): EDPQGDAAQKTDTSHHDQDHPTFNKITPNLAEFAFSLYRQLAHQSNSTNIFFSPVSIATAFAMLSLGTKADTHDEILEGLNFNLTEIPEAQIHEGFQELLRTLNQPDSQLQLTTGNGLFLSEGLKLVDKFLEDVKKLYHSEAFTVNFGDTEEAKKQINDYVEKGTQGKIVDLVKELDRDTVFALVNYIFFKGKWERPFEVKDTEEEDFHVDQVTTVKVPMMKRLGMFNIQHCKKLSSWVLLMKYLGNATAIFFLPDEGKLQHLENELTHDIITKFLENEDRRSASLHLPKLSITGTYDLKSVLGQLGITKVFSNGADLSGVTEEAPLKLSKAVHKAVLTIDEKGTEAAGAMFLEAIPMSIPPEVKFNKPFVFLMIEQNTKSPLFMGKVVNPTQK

Mass A1PI per Eluate Fraction, 1M NaCl (A1PI [1]; [4]): 0.15 mg
Mass A1PI per Eluate Fraction, 2% Acetic Acid (A1PI [1]; [4]): 0.23 mg
Mass A1PI per Eluate Fraction, Flowthrough (A1PI [1]; [4]): 0.24 mg
Percent Eluted by Fraction, 1M NaCl (A1PI [1]; [5]): 24%
Percent Eluted by Fraction, 2% Acetic Acid (A1PI [1]; [5]): 37%
Percent Eluted by Fraction, Flowthrough (A1PI [1]; [5]): 39%
Mass AlPI Eluted in Acid Eluate (A1PI [2]; 250 μg AlPI injected with 5 mg hSA, 20° C.): 0.18 mg
Mass AlPI Eluted in Acid Eluate (A1PI [2]; 500 μg AlPI injected with 5 mg hSA, 20° C.): 0.48 mg
Mass AlPI Eluted in Acid Eluate (A1PI [2]; 1000 μg AlPI injected with 5 mg hSA, 20° C.): 0.70 mg
Mass Protein per Eluate Fraction, 1M NaCl (A1PI [2]; 4° C.): 0.20 mg
Mass Protein per Eluate Fraction, 2% Ac. Acid (A1PI [2]; 4° C.): 0.27 mg
Mass Protein per Eluate Fraction, 3M NaCl (A1PI [2]; 4° C.): 0.01 mg
Mass Protein per Eluate Fraction, Flow (A1PI [2]; 4° C.): 0.29 mg
Percent Eluted by Fraction, 1M NaCl (A1PI [2]; [6]): 26%
Percent Eluted by Fraction, 2% Ac. Acid (A1PI [2]; [6]): 35%
Percent Eluted by Fraction, 3M NaCl (A1PI [2]; [6]): 1%
Percent Eluted by Fraction, Flow (A1PI [2]; [6]): 38%
Mass Protein per Eluate Fraction, 1M NaCl (A1PI [2]; 20° C.): 0.08 mg
Mass Protein per Eluate Fraction, 2% Ac. Acid (A1PI [2]; 20° C.): 0.65 mg
Mass Protein per Eluate Fraction, 3M NaCl (A1PI [2]; 20° C.): 0.02 mg
Mass Protein per Eluate Fraction, Flow (A1PI [2]; 20° C.): 0.08 mg
Percent Eluted by Fraction, 1M NaCl (A1PI [2]; [7]): 9%
Percent Eluted by Fraction, 2% Ac. Acid (A1PI [2]; [7]): 80%
Percent Eluted by Fraction, 3M NaCl (A1PI [2]; [7]): 2%
Percent Eluted by Fraction, Flow (A1PI [2]; [7]): 9%
Mass Protein per Eluate Fraction, 1M NaCl (A1PI [2]; Table 10, 4° C.): 0.21 mg
Mass Protein per Eluate Fraction, 2% Acetic Acid (A1PI [2]; Table 10, 4° C.): 0.31 mg
Mass Protein per Eluate Fraction, 3M NaCl (A1PI [2]; Table 10, 4° C.): 0.03 mg
Mass Protein per Eluate Fraction, Flow (A1PI [2]; Table 10, 4° C.): 0.28 mg
Percent Eluted by Fraction, 1M NaCl (A1PI [2]; [8]): 26%
Percent Eluted by Fraction, 2% Acetic Acid (A1PI [2]; [8]): 38%
Percent Eluted by Fraction, 3M NaCl (A1PI [2]; [8]): 4%
Percent Eluted by Fraction, Flow (A1PI [2]; [8]): 35%
Mass Protein per Eluate Fraction, 1M NaCl (A1PI [2]; Table 10, 20° C.): 0.08 mg
Mass Protein per Eluate Fraction, 2% Acetic Acid (A1PI [2]; Table 10, 20° C.): 0.65 mg
Mass Protein per Eluate Fraction, 3M NaCl (A1PI [2]; Table 10, 20° C.): 0.02 mg
Mass Protein per Eluate Fraction, Flow (A1PI [2]; Table 10, 20° C.): 0.08 mg
Percent Eluted by Fraction, 1M NaCl (A1PI [2]; [9]): 9%
Percent Eluted by Fraction, 2% Acetic Acid (A1PI [2]; [9]): 80%
Percent Eluted by Fraction, 3M NaCl (A1PI [2]; [9]): 2%
Percent Eluted by Fraction, Flow (A1PI [2]; [9]): 9%
Percent A1PI Eluted by Fraction Based on Absorbance at 280 nm, 1M NaCl (A1PI [3]; [10]): 25%
Percent A1PI Eluted by Fraction Based on Absorbance at 280 nm, 2% Acetic Acid (A1PI [3]; [10]): 30%
Percent A1PI Eluted by Fraction Based on Absorbance at 280 nm, Flowthrough (A1PI [3]; [10]): 45%
Percent A1PI Eluted by Fraction, 1M NaCl (A1PI [3]; [11]): 26%
Percent A1PI Eluted by Fraction, 2% Acetic Acid (A1PI [3]; [11]): 66%
Percent A1PI Eluted by Fraction, Flowthrough (A1PI [3]; [11]): 8%
% of Total A1PI Eluted by Fraction (Based on Absorbance at 280 nm), 1M NaCl (A1PI [3]; Trp position mutations, 4° C.): 25%
% of Total A1PI Eluted by Fraction (Based on Absorbance at 280 nm), 2% Acetic Acid (A1PI [3]; Trp position mutations, 4° C.): 30%
% of Total A1PI Eluted by Fraction (Based on Absorbance at 280 nm), Flowthrough (A1PI [3]; Trp position mutations, 4° C.): 45%
% of Total A1PI Eluted by Fraction (Based on Absorbance at 280 nm), 1M NaCl (A1PI [3]; Trp position mutations, 20° C.): 26%
% of Total A1PI Eluted by Fraction (Based on Absorbance at 280 nm), 2% Acetic Acid (A1PI [3]; Trp position mutations, 20° C.): 66%
% of Total A1PI Eluted by Fraction (Based on Absorbance at 280 nm), Flowthrough (A1PI [3]; Trp position mutations, 20° C.): 8%
% of Total A1PI Eluted by Fraction (Based on Absorbance at 280 nm), 1M NaCl (A1PI [3]; [12]): 25%
% of Total A1PI Eluted by Fraction (Based on Absorbance at 280 nm), 2% Acetic Acid (A1PI [3]; [12]): 30%
% of Total A1PI Eluted by Fraction (Based on Absorbance at 280 nm), Flowthrough (A1PI [3]; [12]): 45%
Substance: VIWLVR
